{"source": "paper PMC12720343", "origin": "cited, not measured here", "molecular_target": "SpoIIQ extracytoplasmic fragment (Bacillus subtilis) (UniProt P71044)", "sequence (P71044 43-283)": "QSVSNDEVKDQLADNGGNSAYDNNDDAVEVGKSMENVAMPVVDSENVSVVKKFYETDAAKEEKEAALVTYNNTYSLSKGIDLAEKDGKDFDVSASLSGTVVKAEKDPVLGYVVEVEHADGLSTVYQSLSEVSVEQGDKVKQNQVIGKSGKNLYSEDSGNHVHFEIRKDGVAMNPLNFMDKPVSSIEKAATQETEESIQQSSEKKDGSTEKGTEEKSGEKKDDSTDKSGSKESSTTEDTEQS"}
{"substance": "SpoIIIAH extracytoplasmic fragment (from UniProt P49785)", "values": [{"measurement": "Kd", "result": 1000, "unit": "nM"}]}
